Laboratory results published in patent publication US11779649B2, “Antibodies to PMEL17 and conjugates thereof” (Novartis AG, priority 2018, dated 2023).
Changes are numbered by the printed parent chain. Starred links: 1 amine or outer side, 2 acyl side, 3 side chain; linkers in the order of their positions; H or OH if unused. Positions of bridges follow the written chain, without caps; N, C: chain ends. Non-standard residues stand in square brackets, D forms with d. Residues, ends and D or L forms follow the SMILES beside them. *: point of attachment. Leu(3R-OH,Nα-propionyl) = CCC(=O)N[C@H](C(=O)*)[C@H](O)C(C)C; X1 = CC(C)[C@@H](O[*:3])[C@H](N[*:1])C(=O)[*:2]; NMeT = CN[C@H](C(=O)O)[C@@H](C)O; dPhLac = O=C(O)[C@H](O)Cc1ccccc1; NMeA = CN[C@@H](C)C(=O)O; NMeDha = C=C(NC)C(=O)O

B1: MOR024354: anti-PMEL17 antibody (IgG) (antibody, V domains shown)
VH: QVQLLESGGGLVQPGGSLRLSCAASGFTFSSFGMSWVRQAPGKGLEWVSAISYSGSDTYYADSVKGRFTISRDNSKNTLYLQMNSLRAEDTAVYYCARDVGVMDYWGQGTLVTVSS
VL: SYELTQPLSVSVALGQTARITCSGDNLGTYYAHWYQQKPGQAPVLVIYSQSHRPSGIPERFSGSNSGNTATLTISRAQAGDEADYYCGAWDAPSPELVFGGGTKLTVL
B2: MOR024353: anti-PMEL17 antibody (IgG) (antibody, V domains shown)
VH: QVQLVQSGAEVKKPGSSVKVSCKASGGTFSDYAISWVRQAPGQGLEWMGGIIPIFGDANYAQKFQGRVTITADESTSTAYMELSSLRSEDTAVYYCAREGSSYFYMAYWGQGTLVTVSS
VL: SYELTQPLSVSVALGQTARITCSGDNIGSKLASWYQQKPGQAPVLVIYDDSNRPSGIPERFSGSNSGNTATLTISRAQAGDEADYYCAATAGDRWAYVFGGGTKLTVL
B3: Y010900: anti-PMEL17 antibody (IgG) (antibody, V domains shown)
VH: EVQLVESGGGLVKPGGSLRLSCAASGFTFSNAWMSWVRQAPGKGLEWVGRIKSKTDAGTTDYAAPVKGRFTISRDDSKNTLYLQMNSLKTEDTAVYYCARTIYPSAPSSSLDYWGQGTLVTVSS
VL: DIQMTQSPSSLSASVGDRVTITCRASQGISNYLAWYQQKPGKVPKLLIYAASTLQSGVPSRFSGSGSGTDFTLTISSLQPEDVATYYCQQLIFFPLTFGQGTKVEIK
B4: Y010910: anti-PMEL17 antibody (IgG) (antibody, V domains shown)
VH: EVQLVESGGGLVKPGGSLRLSCAASGFTFSNAWMSWVRQAPGKGLEWVGRIKSKTDAGTTDYAAPVKGRFTISRDDSKNTLYLQMNSLKTEDTAVYYCARVASPSAPGGFDYWGQGTLVTVSS
VL: B3 VL with L91S, I92L, F94A, L96F
B5: Y010903: anti-PMEL17 antibody (IgG) (antibody, V domains shown)
VH: EVQLVESGGGLVKPGGSLRLSCAASGFTFSNAWMSWVRQAPGKGLEWVGRIKSKTDAGTTDYAAPVKGRFTISRDDSKNTLYLQMNSLKTEDTAVYYCARASHRLHSLFDVWGQGTLVTVSS
VL: DIQMTQSPSTLSASVGDRVTITCRASQSISSWLAWYQQKPGKAPKLLIYDASSLESGVPSRFSGSGSGTEFTLTISSLQPEDFATYYCQQGLFYPHTFGQGTKVEIK
B6: Y010356: anti-PMEL17 antibody (IgG) (antibody, V domains shown)
VH: EVQLVESGGGLVKPGGSLRLSCAASGFTFSNYWISWVRQAPGKGLEWVGRIKSKTYGGTTDYAEPVKGRFTISRDDSKNTLYLQMNSLKTEDTAVYYCARVSGYYSHSGGFDVWGQGTLVTVSS
VL: B3 VL with Q90K, L91T, I92W, F93R, F94T, L96G
B7: Y010355: anti-PMEL17 antibody (IgG) (antibody, V domains shown)
VH: EVQLVESGGGLVKPGGSLRLSCAASGFTFSNYWISWVRQAPGKGLEWVGRIKSKTYGGTTDYAEPVKGRFTISRDDSKNTLYLQMNSLKTEDTAVYYCARTSRRSYAFDYWGQGTLVTVSS
VL: B5 VL with G91I, L92T, F93R, H96V
B8: Y010906: anti-PMEL17 antibody (IgG) (antibody, V domains shown)
VH: EVQLVESGGGLVKPGGSLRLSCAASGFTFSNAWMSWVRQAPGKGLEWVGRIKSKTDAGTTDYAAPVKGRFTISRDDSKNTLYLQMNSLKTEDTAVYYCARDEYPWGWFDVWGQGTLVTVSS
VL: B3 VL with L11V, N31S, Y32W, V43A, T53S, V83F, L91Y, F94Y

System: 92.1 uveal melanoma
Test: Resazurin-based viability assay, 92.1 uveal melanoma cells
Type: cell-based
Details: 92.1 GNAQ^Q209L; Table 1; read-out: GI50 (nM) 92.1GNAQ^Q209L
Method: (§1) Following drug treatment for 96 or 120 hours, cell viability and proliferation were determined using a resazurin-based viability assay. Briefly, cells were incubated with a resazurin-based solution and color change was detected by absorbance with a spectrophotometer and used as a readout of cell viability. Data presented as mean of 3 independent replicates and relative to PBS-treated cells (control).
as §1, with “(control) (FIG. 6).” for “(control).”
Following drug treatment for 96 or 120 hours, cell viability and proliferation were determined using a resazurin-based viability assay. Data presented as mean of 3 independent replicates and relative to PBS-treated cells (control) (FIG. 8).
as §1

Molecule	GI50
C=C1C(=O)N[C@@H](C)C(=O)N(C)[C@@H](C)C(=O)N[C@@H]([C@H](OC(=O)[C@@H](NC(=O)CC)[C@H](O)C(C)C)C(C)C)C(=O)N(C)[C@@H]([C@@H](C)OC)C(=O)O[C@H](C)[C@H](NC(C)=O)C(=O)O[C@H](Cc2ccccc2)C(=O)N1C [Compound (A3), (R)-1-((3S,6S,9S,12S,18R,21S,22R)-21-acetamido-18-benzyl-3-((R)-1-methoxyethyl)-4,9,10,12,16,22-hexamethyl-15-methylene-2,5,8,11,14,17,20-heptaoxo-1,19-dioxa-4,7,10,13,16-pentaazacyclodocosan-6-yl)-2-methylpropyl (2S,3R)-3-hydroxy-4-methyl-2-propionamidopentanoate] (Ac-T[dPhLac][NMeDha]A[NMeA][X1](Leu(3R-OH,Nα-propionyl))[NMeT](Me); ester 1-C)	9.3 nM

Target: T1, human PMEL17 (Homo sapiens, UniProt P40967)
T1 construct: G-361 melanoma cell line expresses human PMEL17 at a lower level compared to the HKB11-human PMEL17 overexpressing cell line; endogenous in cells; host or cells: G-361 (human melanoma)
T1 sequence (P40967 25-661): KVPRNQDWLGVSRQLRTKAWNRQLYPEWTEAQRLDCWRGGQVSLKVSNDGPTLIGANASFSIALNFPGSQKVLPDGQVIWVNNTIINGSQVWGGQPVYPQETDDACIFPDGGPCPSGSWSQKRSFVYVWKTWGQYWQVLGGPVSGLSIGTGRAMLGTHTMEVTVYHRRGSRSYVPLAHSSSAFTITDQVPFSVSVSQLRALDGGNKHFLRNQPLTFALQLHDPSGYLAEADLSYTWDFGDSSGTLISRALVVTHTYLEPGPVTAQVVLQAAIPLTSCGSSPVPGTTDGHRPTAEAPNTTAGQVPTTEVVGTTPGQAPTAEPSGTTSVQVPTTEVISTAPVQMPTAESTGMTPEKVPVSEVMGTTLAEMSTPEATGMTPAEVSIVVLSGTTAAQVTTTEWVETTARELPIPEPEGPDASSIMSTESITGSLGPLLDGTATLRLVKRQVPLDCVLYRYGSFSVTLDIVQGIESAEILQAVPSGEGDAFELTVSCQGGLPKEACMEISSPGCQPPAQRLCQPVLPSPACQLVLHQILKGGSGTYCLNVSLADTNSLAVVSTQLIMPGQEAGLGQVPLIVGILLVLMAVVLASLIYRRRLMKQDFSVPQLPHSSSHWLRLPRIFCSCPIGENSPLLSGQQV
Test: Apparent affinity by FACS titration of IgGs on G-361 melanoma cell line
Type: binding
Details: G-361, Alexa Fluor-labelled detection antibody; read-out: FACS EC50 (nM) G-361 (Alexa Fluor)
Method: (§2) Purified IgGs were titrated on a variety of PMEL17 expressing and PMEL17 non expressing cell lines (for control) to determine EC50 values. Cells were harvested using Accutase, adjusted to ˜4×10^6 cells/ml into FACS buffer (PBS, 3% FCS and 0.02% Na-Azide) and kept on ice to avoid internalization. 15 μl of cell suspension/well were transferred into 384 well V-bottom plates (Greiner, Cat #781280) and incubated with 15 μl of IgGs at different concentrations (most commonly from 200 to 3.5×10−3 nM) for 1 hour at 4° C., gently shaking. Following incubation, cells were washed three times with FACS buffer. After each washing step, cells were centrifuged (250×g, 5 min, 4° C.) and carefully resuspended. 15 μl of detection antibody conjugated to PE (PE-conjugated goat anti-human IgG, F(ab′)2 fragment specific, 1:150 in FACS buffer; Jackson Immuno Research, #109-116-097) or Alexa Fluor (Alexa Fluor-conjugated goat anti-human IgG, F(ab′)2 fragment specific, 1:150 in FACS buffer; Jackson Immuno Research, #109-606-097) were added and samples were incubated for 45 minutes to 1 hour on ice in the dark, gently shaking. After 3 washing steps, cells were resuspended in 30 μl of FACS buffer and samples were measured using the IntelliCyt HTFC device. EC50 values were calculated using the Graphpad Prism software. G-361 melanoma cell line expresses human PMEL17 at a lower level compared to the HKB11-human PMEL17 overexpressing cell line, and therefore allows a more precise ranking of the clones depending on their apparent affinity on cells.
The cross-specificity of the IgGs was evaluated in does response FACS on G-361 (human melanoma), HKB11-cyno-PMEL17, HKB11-rat PMEL17 and B16-F10 (mouse PMEL17 expressing melanoma) (Table 3). […]

Molecule	EC50
B1	1.7 nM
B2	62.8 nM
B3	1.3 nM
B4	10 nM
B5	3.2 nM

Same assay, conditions: G-361, PE-labelled detection antibody; read-out: FACS EC50 (nM) G-361 (PE)

Molecule	EC50
B6	1.6 nM
B7	0.5 nM

Target: T2, mouse PMEL17 (Mus musculus, UniProt Q60696)
T2 construct: B16-F10 (mouse PMEL17 expressing melanoma); endogenous in cells; host or cells: B16-F10 (mouse melanoma)
T2 sequence (Q60696 24-626): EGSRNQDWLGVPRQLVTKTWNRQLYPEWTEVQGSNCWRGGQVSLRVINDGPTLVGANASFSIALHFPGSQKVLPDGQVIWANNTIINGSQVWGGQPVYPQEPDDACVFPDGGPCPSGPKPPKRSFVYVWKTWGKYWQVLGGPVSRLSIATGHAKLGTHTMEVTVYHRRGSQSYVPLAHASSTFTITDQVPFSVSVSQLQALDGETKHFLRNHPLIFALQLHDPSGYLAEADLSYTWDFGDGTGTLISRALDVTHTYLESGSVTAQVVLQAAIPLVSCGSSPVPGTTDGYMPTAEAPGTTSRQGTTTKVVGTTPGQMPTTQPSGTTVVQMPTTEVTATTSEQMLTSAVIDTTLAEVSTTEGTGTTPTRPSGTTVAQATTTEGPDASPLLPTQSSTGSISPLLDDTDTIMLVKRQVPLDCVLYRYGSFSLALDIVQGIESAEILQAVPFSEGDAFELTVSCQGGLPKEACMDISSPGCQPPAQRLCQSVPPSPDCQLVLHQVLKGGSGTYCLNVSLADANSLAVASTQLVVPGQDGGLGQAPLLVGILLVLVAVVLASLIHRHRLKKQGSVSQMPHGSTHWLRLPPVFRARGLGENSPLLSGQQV
Test: Apparent affinity by FACS titration of IgGs on B16-F10 melanoma cells
Type: binding
Details: Alexa Fluor
Method: as §2
(§3) The cross-specificity of the IgGs was evaluated in does response FACS on G-361 (human melanoma), HKB11-cyno-PMEL17, HKB11-rat PMEL17 and B16-F10 (mouse PMEL17 expressing melanoma) (Table 3). Testing on G-361 was performed using a detection antibody labelled to PE. In contrast, an Alexa-Fluor labelled detection antibody had to be used for testing the candidates on the other cell lines so as to reach detectable signals.

Molecule	EC50
B1	> 100 nM
B2	> 100 nM
B3	> 100 nM

System: UACC-62
Test: FACS titration of IgGs on UACC-62 cells
Type: binding
Details: UACC-62, PE-labelled detection antibody
Method: as §2

Molecule	UACC-62 (PE)
B1	Negative
B2	Negative
B3	Negative
B6	Negative
B8	Negative
B4	Negative
B7	Negative
B5	Negative

System: PMEL17
Test: Cross-reactivity (cross-specificity profile) of anti-PMEL17 IgGs in dose response FACS
Type: binding
Parameters: key: h/c/r/m: human/cyno/rat/mouse; h/c/r: human/cyno/rat; h/c/(m): human/cyno/mouse; h/c: human/cyno
Details: h human, c cyno, r rat, m mouse
Method: as §3
IgGs were classified into several epitope groups according to their cross-specificity profiles.

Molecule	Cross spe profile (based on C14 detection ab)
B1	h/c/r
B2	h/c
B3	h/c/r/m
B6	h/c/r/m
B8	h/c/r/m
B4	h/c/(m)
B7	h/c/r/m
B5	h/c/(m)
